# The nanobody polyreactivity screen of Harvey et al. (2022)
# Test: yeast display, Sf9 membrane polyspecificity reagent, FACS + sequencing; frameworks hold sequencing errors
# Outline: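 Sorting gates, low and high (top ~1%), were placed on anti-HA fluorescence to track expression and on streptavidin fluorescence to track reagent binding. A clone's polyreactivity label is taken from the gate it came out of. The reagent was 10% biotinylated, detergent-solubilized Sf9 membrane, applied for 1 hour at 4 °C to galactose-induced yeast display cells.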
row,Sequence,polyreactivity (PSR sort gate)
1,QVQLVESGGGLVQAGGSLRLSCAASGCTFLYYMGWYRQAPGKERELVSALTFSGGSTYYADSVKGRFTISRDNAKNTVYLQMNSLKPEDTAVDDGAAGWYDWPKYLLSVYTYYLYDYWGQGSQVTVSS,low polyreactivity
2,QVQLVESGGGLVQAGGSLRLSCAASGDTFTSYAMGWYRQAPGKERELVAAISRRGGSTYYADSVKGRFTISRDNAKNTVYLQMNSLKPEDTAVYYCAAKSYSYTEFDYWGQGTQVTVSS,high polyreactivity
3,QVQLVESGGGLVQAGGSLRLSCAASGFAFGVYAMGWDRQAAGKERELVAAITRSGGSTYYADSVKGRFTISRDNAKNTVYLQMNSLKPEDTAVYYCAARARDHYGYWGQGTQVTVSS,high polyreactivity
4,QVQLVESGGGLVQAGGSLRLSCAASGFDGYAMGWYRQAPGKERELVAAISWSGSRTYYADSVKGRFTISRDNAKNTVYLQMNSLKPEDTAVYYCAADDVGRGSTPYDYWGQGTQVTVSW,high polyreactivity
5,QVQLVESGGGLVQAGGSLRLSCAASGFICDYNAMGWYRQAPGKERELVAAISGGGGSTYYADSVKGRFTISRDNAKKTVYLQMNSLKPEDTAVYYCAKRYRGGYWGQGTQVTVSS,high polyreactivity
6,QVQLVESGGGLVQAGGSLRLSCAASGFICGYNAMGWYRQAPGKERELVASINWSGGRTYYADSVKGRFTISRDNAKITVYLQMNSLKPEHTAVYYCNADGSRRYNYWGQGTQVTVSS,low polyreactivity
7,QVQLVESGGGLVQAGGSLRLSCAASGFIFAASALGWSRQAAGKEREFVAAISNSGTSTYYADSVKGRFTISRDNAKNTVYLQMNSLKPEDTAVYYCAAPWSTAYDYWGQGTQVTVSS,high polyreactivity
8,QVQLVESGGGLVQAGGSLRLSCAASGFIFAAYAKGWYRQAPGKERELVAAISGSGGRTYYADSVKGRFTISRDNAKYTVYLQMNSLKPEDTAVYYCGTPPGYPPGSIIWSRFGFWGQGTQVTVSS,high polyreactivity
9,QVQLVESGGGLVQAGGSLRLSCAASGFIFADYTMGWYRQPPGKERELVAAITRSGDSTYYADSVKGRFTISRDNAKNTVYLQMNSLKPEDTAVYYCNAVNDWYYAYYGVTSFRSYDYWGQGTQVTVSS,low polyreactivity
10,QVQLVESGGGLVQAGGSLRLSCAASGFIFAGYAMGWYRQAPGKERELVAAISWDGGSTYYADSVKGRFTISRDNAKNTVYLQMNSLKPEDTAVYYCARARYGKYGYWGQATQVTVSS,low polyreactivity
11,QVQLVESGGGLVQAGGSLRLSCAASGFIFAIYAMGWYRQAPGKERELVAAINSDGSTYYADSVKGRFTISRDNAKNTVYLQMNSLKPEDTAVYYCNAETAGHDMDYWGQGTQVTVSS,low polyreactivity
12,QVQLVESGGGLVQAGGSLRLSCAASGFIFAIYAMGWYRQAPGKERELVAAITSSSSTYADSVKGRFTISRDNAKNTVYLQMNSLKPEDTAVYYCAADTYSYRNSNDYWGQGTQVTVSS,low polyreactivity
13,QVQLVESGGGLVQAGGSLRLSCAASGFIFANNAMGWYRQAPGKEREWVAAITSRGGGTYYADSVKGRFTISRDNAKNTVYLQMNCLKPEDTAVYYCAVRTYRFRHWPKYDYWGQGNQVTVSS,high polyreactivity
14,QVQLVESGGGLVQAGGSLRLSCAASGFIFANYAMGWYRQAPGKERELVAAISSGRITYYADSVKGRFTISRDNAKNTVYLQMNSLKPEDTAVYYCAADVLYQDRSGEYHHWDGDYWGQGTQVTVSS,low polyreactivity
15,QVQLVESGGGLVQAGGSLRLSCAASGFIFAPNAMGWYRQAPGKERELVAAISHSGASTFYADSVKGRFTISRDNAKNTVYLQMNILKPEDTAVYYCAADLYIYYVWIRDYWGHGTQVTVSS,low polyreactivity
16,QVQLVESGGGLVQAGGSLRLSCAASGFIFAPNAMGWYRQAPGKERELVAAISHSGASTFYADSVKGRFTISRDYAKNTVYLQMNSLKPEDTAVYYCGAPPYYSYDYWRQGTQVTVSS,low polyreactivity
